# B1: KGC-HDAC4c (C-terminal portion of Kusabira Green protein fused with HDAC4c), wild type [human] / KGN-SRD3c (N-terminal portion of Kusabira Green protein fused with SRD3c) [human] (parent complex)
# chain 1: PRFTTGLVYDTLMLKHQCTCGSSSSHPEHAGRIQSIWSRLQETGLRGKCECIRGRKATLEELQTVHSEAHTLLYGTNPLNRQKLDSKKLLGSLASVFVRLPCGGVGVDSDTIWNEVHSAGAARLAVGCVVELVFKVATGELKNGFAVVRPPGHHAEESTPMGFCYFNSVAVAAKLLQQRLSVSKILIVDWDVHHGNGTQQAFYSDPSVLYMSLHRYDDGNFFPGSGAPDEVGTGPGVGFNVNMAFTGGLDPPMGDAEYLAAFRTVVMPIASEFAPDVVLVSSGFDAVEGHPTPLGGYNLSARCFGYLTKQLMGLAGGRIVLALEGGHDLTAICDASEACVSALLGNELDPLPEKVLQQRPNANAVRSMEKVMEIHSKYWRCLQRTTSTAGRSLIEAQTCENEEAET
# chain 2: EGGMSVTQCSKEDGRSSSGPPHETAAPKRTYDMMEGRVGRAISSASIEGLMGRAIPPERHSPHHLKEQHHIRGSITQGIPRSYVEAQEDYLRREAKLLKREGTPPPPPPSRDLTEAYKTQALGPLKLKPAHEGLVATVKEAGRSIHEIPREELRHTPELPLAPRPLKEGSITQGTPLKYDTGASTTGSKKHDVRSLIGSPGRTFPPVHPLDVMADARALERACY
# B2: KGC-HDAC5c (C-terminal portion of Kusabira Green protein fused with HDAC5c), wild type [human] / KGN-SRD3c (N-terminal portion of Kusabira Green protein fused with SRD3c) [human] (parent complex)
# chain 1: LFTTGVVYDTFMLKHQCMCGNTHVHPEHAGRIQSIWSRLQETGLLSKCERIRGRKATLDEIQTVHSEYHTLLYGTSPLNRQKLDSKKLLGPISQKMYAVLPCGGIGVDSDTVWNEMHSSSAVRMAVGCLLELAFKVAAGELKNGFAIIRPPGHHAEESTAMGFCFFNSVAITAKLLQQKLNVGKVLIVDWDIHHGNGTQQAFYNDPSVLYISLHRYDNGNFFPGSGAPEEVGGGPGVGYNVNVAWTGGVDPPIGDVEYLTAFRTVVMPIAHEFSPDVVLVSAGFDAVEGHLSPLGGYSVTARCFGHLTRQLMTLAGGRVVLALEGGHDLTAICDASEACVSALLSVELQPLDEAVLQQKPNINAVATLEKVIEIQSKHWSCVQKFAAGLGRSLREAQAGETEEAETVS
# chain 2: B1 chain 2
# Variants of: B1
# Test: BiFC assay (fluorescence spectrophotometer); HEK293 cells; KGN-SRD3c (1 μg) and KGC-HDAC4c mutant (1 μg); 48 hours of transfection; whole cell lysates; parent: 8; read off a plot
row,Variant,response [RFU]
1,chain 1 A125D,~4.3
2,chain 1 S118P,~4.4
3,chain 1 G219A,~5.3
4,chain 1 H194R,~3.9
5,chain 1 D110Y,~5.5
6,chain 1 A155T,~4.6
7,chain 1 F163S,~4.5
8,chain 1 C164Y,~4.1
9,chain 1 N196S,~4.2
10,chain 1 T111P,~4.2
11,chain 1 P150H,~4.2
12,chain 1 P151H,~4.1
13,chain 1 G197R,~6.8
14,chain 1 G152E,~3.9
15,chain 1 F222L,~4.1
16,chain 1 G195R,~4.6
17,chain 1 H154Y,~4.3

# Variants of: B2
# Test: BiFC assay (fluorescence spectrophotometer); HEK293 cells; KGN-SRD3c (1 μg) and KGC-HDAC5c mutant (1 μg); 48 hours of transfection; whole cell lysates; parent: 9.3; read off a plot
row,Variant,response [RFU]
1,chain 1 G197D,~4
2,chain 1 C164R,~4.4
3,chain 1 G195C,~3.9
4,chain 1 N196D,~3.7
5,chain 1 G295C,~5
6,chain 1 F163S,~5.8
7,chain 1 P150L,~3.8
8,chain 1 G152E,~4.1
9,chain 1 D110G,~5.1
10,chain 1 G326C,~4
11,chain 1 H154R,~4.9
12,chain 1 G127E,~3.7
13,chain 1 S118P,~3.9
14,chain 1 G325V,~4.1
15,chain 1 F222L,~3.9
16,chain 1 P151S,~5.9
17,chain 1 G219W,~3.9
